Laboratory results as given in PMC2133019 (The Journal of Cell Biology, 1998).
acyl = not defined here

Columns and labels:
clathrin/AP cages = clathrin/AP cages (Bos taurus, UniProt P49951); test: NMR line-broadening with assembled clathrin/AP cages; format: binding, bovine; conditions: 2.5 mM peptide
[1] = molecular target: assembled clathrin/AP cages (bovine (purified from bovine brain)) (UniProt P49951); test: NMR line-broadening
[2] = 20 mg/ml cages, line-width with cages minus without

Sequence of assembled clathrin/AP cages (bovine (purified from bovine brain)) (P49951 whole entry, looked up): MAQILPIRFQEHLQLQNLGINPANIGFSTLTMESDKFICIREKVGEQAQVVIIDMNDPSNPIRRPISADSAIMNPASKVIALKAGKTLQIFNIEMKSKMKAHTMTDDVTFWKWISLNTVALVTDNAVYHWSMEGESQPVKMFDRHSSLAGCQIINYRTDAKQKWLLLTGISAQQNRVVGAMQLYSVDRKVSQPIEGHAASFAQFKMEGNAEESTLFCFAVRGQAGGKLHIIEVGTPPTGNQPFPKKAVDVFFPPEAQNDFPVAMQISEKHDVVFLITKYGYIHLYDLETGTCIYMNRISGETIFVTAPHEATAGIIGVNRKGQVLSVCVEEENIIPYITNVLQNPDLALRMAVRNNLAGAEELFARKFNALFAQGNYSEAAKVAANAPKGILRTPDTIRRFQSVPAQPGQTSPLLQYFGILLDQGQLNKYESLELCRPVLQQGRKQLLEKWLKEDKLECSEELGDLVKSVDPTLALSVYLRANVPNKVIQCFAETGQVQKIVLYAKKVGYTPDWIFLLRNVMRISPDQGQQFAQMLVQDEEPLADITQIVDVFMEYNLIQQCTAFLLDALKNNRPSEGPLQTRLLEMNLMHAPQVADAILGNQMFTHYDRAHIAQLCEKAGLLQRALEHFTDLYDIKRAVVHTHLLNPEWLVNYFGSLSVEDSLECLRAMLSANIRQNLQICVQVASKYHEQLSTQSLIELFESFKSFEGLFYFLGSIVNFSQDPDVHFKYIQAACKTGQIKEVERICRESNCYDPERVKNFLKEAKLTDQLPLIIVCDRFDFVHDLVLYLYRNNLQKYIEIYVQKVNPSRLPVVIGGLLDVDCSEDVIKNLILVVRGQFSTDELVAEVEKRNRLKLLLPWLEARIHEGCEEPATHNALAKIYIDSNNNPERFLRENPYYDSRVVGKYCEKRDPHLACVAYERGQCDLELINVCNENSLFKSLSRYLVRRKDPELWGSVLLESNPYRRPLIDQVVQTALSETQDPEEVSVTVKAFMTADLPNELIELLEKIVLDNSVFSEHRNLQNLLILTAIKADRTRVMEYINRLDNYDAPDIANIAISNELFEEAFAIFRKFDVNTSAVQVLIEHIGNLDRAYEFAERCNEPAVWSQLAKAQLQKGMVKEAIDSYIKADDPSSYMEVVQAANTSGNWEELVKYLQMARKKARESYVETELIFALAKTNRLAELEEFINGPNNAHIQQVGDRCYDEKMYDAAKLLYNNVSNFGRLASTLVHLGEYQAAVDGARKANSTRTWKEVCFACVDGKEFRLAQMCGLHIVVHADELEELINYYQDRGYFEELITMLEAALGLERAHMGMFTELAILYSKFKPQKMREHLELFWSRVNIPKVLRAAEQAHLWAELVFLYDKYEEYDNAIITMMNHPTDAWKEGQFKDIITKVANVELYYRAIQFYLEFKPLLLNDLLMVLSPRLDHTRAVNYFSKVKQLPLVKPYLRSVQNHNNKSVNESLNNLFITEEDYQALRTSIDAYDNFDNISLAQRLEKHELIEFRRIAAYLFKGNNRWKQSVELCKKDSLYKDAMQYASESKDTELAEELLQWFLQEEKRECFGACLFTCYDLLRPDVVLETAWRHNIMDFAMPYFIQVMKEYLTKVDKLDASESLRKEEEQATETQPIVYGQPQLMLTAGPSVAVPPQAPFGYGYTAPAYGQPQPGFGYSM
Sequence of clathrin/AP cages (P49951 whole entry): as the sequence (P49951 whole entry, looked up) above
Sequence of clathrin/AP cages (P04973 whole entry partner): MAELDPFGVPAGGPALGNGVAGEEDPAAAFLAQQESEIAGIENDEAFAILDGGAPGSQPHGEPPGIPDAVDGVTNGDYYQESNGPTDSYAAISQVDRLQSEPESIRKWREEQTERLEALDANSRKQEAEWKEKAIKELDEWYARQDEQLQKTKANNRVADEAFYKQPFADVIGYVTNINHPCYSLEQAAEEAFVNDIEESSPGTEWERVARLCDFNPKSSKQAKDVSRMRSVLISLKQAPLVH
Sequence of clathrin/AP cages (P04975 whole entry partner): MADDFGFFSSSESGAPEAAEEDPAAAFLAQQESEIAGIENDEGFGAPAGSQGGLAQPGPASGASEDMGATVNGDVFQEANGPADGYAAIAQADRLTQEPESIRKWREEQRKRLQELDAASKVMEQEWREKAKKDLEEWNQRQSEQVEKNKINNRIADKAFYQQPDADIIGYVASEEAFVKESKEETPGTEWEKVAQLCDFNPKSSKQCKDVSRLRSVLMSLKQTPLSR

line-broadening, Phe εH [1] [Hz]	line-broadening, Thr9 γH [1] [Hz]	line-broadening, Thr10 γH [1] [Hz]	line-broadening, Tyr εH [1] [Hz]	line-broadening, Val γH1 [1] [Hz]	line-broadening, Val γH2 [1] [Hz]	Molecule	line-broadening Phe εH (clathrin/AP cages; [2]) [Hz]	line-broadening Thr10 γH (clathrin/AP cages; [2]) [Hz]	line-broadening Tyr εH (clathrin/AP cages; [2]) [Hz]	line-broadening Val γH1 (clathrin/AP cages; [2]) [Hz]	line-broadening Val γH2 (clathrin/AP cages; [2]) [Hz]	cage-induced line-broadening (in words) (clathrin/AP cages; 20 mg/ml clathrin/AP cages, pH 6.0)
–	–	–	–	–	–	FDNPVYQKTT (acyl-FDNPVYQKTT-OH; reading uncertain; also: acylated N-terminus, acyl group not given here)	3.60	2.95	3.45	5.20	3.82	pronounced increase in the line widths
3.6	3.18	2.95	3.45	5.2	3.82	acyl-FDNPVYQKTT-OH (reading uncertain; also: acylated NH2 terminus) [wild-type LDL receptor internalization motif decapeptide …]	–	–	–	–	–	–
